The values that follow come from publication PMC9303331, “Novel agonist and antagonist radioligands for the GLP‐2 receptor. Useful tools for studies of basic GLP‐2 receptor pharmacology” (British Journal of Pharmacology, 2022).

In assay [1] the target is T1, mGLP‐1 receptor (mouse, UniProt O35659 22-463).
T1 construct: mouse glucagon-like peptide-1 receptor, pcDNA3.1(+) plasmid from ThermoFisher; also called mouse GLP‐1 receptor; source: COS-7, transiently transfected (pcDNA3.1(+)), on whole cells
T1 sequence (looked up): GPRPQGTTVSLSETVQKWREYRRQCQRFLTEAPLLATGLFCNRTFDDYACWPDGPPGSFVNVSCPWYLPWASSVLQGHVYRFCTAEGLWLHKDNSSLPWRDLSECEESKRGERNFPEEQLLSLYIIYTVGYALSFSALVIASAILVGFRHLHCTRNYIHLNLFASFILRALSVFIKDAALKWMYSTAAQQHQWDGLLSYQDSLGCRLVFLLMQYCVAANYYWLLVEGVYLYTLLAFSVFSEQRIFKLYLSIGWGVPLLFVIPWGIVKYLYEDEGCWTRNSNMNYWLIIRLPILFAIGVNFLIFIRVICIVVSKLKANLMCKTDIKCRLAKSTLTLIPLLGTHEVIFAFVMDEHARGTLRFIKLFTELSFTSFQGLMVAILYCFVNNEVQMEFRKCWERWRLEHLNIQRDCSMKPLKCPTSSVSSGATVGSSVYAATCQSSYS

For assay [2], the target named is T1, mGLP‐1 receptor. The source holds these as a separate data set.
In assay [3] the target is T2, mGLP‐2 receptor (mouse, UniProt Q5IXF8 1-512).
T2 construct: mouse glucagon-like peptide-2 receptor, pcDNA3.1(+) plasmid from ThermoFisher; also called mouse GLP‐2 receptor; source: COS-7, transiently transfected (pcDNA3.1(+)), on whole cells
T2 sequence (looked up): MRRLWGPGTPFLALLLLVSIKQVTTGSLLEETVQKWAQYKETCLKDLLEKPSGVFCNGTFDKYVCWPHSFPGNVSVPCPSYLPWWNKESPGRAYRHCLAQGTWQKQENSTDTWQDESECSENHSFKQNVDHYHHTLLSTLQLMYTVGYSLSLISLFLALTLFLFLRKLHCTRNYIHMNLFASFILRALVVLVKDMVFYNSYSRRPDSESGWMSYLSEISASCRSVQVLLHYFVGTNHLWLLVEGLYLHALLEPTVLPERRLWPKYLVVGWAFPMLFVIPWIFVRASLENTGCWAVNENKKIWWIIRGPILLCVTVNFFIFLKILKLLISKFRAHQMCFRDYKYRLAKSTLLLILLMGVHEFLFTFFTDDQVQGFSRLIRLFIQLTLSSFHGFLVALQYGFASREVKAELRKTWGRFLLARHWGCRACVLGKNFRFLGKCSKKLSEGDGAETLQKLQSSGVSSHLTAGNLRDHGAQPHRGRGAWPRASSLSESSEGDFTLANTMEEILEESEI
The settings on record: one partner purified.

Assay [4] deals with T1, mGLP‐1 receptor. The settings on record: one partner purified.
For assay [5], the target named is T3, rGLP‐2 receptor (rat, UniProt Q9Z0W0 1-550).
T3 construct: rat glucagon-like peptide-2 receptor, pcDNA3.1(+) plasmid from ThermoFisher; also called rat GLP‐2 receptor; source: COS-7, transiently transfected (pcDNA3.1(+)), on whole cells
T3 sequence (looked up): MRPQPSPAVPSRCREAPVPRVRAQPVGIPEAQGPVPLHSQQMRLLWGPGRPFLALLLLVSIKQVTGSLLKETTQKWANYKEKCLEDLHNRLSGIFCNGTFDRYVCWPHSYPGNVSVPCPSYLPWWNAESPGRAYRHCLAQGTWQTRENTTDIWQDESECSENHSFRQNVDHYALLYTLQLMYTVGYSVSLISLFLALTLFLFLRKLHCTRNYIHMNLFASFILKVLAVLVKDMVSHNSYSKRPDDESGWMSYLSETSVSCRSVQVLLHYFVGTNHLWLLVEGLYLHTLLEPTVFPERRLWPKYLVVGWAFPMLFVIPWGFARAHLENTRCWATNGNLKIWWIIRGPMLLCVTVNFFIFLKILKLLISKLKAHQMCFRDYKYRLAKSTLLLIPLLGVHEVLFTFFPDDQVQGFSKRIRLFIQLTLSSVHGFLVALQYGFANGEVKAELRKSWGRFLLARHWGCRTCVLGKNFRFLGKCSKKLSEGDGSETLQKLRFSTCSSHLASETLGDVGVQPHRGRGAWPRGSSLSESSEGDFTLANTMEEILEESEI
The settings on record: one partner purified.

In assay [6] the target is T2, mGLP‐2 receptor. The settings on record: one partner purified. The source holds these as a separate data set.
In assay [7] the target is T1, mGLP‐1 receptor. The settings on record: one partner purified. The source holds these as a separate data set.
Assay [8] has as its target T3, rGLP‐2 receptor. The settings on record: one partner purified. This is another data set of the same source.

Like-named read-outs stand apart in the source and are kept apart here.

For [^125I]‐hGLP‐2(3–33,M10Y) (peptide), the % max (specific binding of the radioligand, normalised to its binding to the mGLP-2 receptor) with mGLP‐1 receptor [1] is 93.3%.
[^125I]‐hGLP‐2(1–33,M10Y) (peptide) returned a % max (specific binding of the radioligand, normalised to its binding to the mGLP-2 receptor) with mGLP‐1 receptor [2] of 84.5%.
For the molecule HADGSFSDEMNTILDNLAARDFINWLIQTKITD [hGLP‐2(1–33)], the Ki (usually a measure of affinity in units of concentration, obtained from inhibition or displacement) amounted to 6.6 nM with mGLP‐2 receptor [3]; 208 nM in the assay with mGLP‐1 receptor [4]; 5.4 nM with rGLP‐2 receptor [5]; 18 nM in the assay with mGLP‐2 receptor [6]; 183 nM in the assay with mGLP‐1 receptor [7]; 6.5 nM in the assay with rGLP‐2 receptor [8]. Besides, the negative logarithm of the IC50 (pIC50) (usually the negative decadic logarithm of the IC50, by convention in mol/L) in the assay with mGLP‐2 receptor [3] turned out to be 8.2; with mGLP‐1 receptor [4], 6.7; with rGLP‐2 receptor [5], 8.3; with mGLP‐2 receptor [6], 7.7; with mGLP‐1 receptor [7], 6.7; with rGLP‐2 receptor [8] it was 8.2.
